Laboratory results from article PMC3173129.

Target: Orai3 N-terminal peptide aa 52–65 (human) (UniProt Q9BRQ5)
Assay: SPR

response (resonance units) (resonance units): 207
Substance: Calmodulin from bovine testes (from UniProt P62157 1-149) (natural protein)
